Data reported in CN111848800A (SANYOU BIOPHARMACEUTICALS CO LTD, dated 2020).

Legend:
[1] = target: T1, 鼠PD-L1 (全长蛋白, on CHO-s cells) (mouse, UniProt Q9EP73 19-290); assay: FACS on mouse PD-L1-CHO cells, PE anti-human IgG Fc
T1 construct: whole, on cells; also called 小鼠PD-L1-CHO; 鼠PD-L1-CHO

[2] = target: T2, B7-H4 recombinant protein (义翘神州 10738-H08H) (UniProt Q7Z7D3 25-258); assay: ELISA, protein coated at 2 μg/mL, anti-human IgG Fc-HRP; N/A means 未检出结合活性
T2 sequence (looked up): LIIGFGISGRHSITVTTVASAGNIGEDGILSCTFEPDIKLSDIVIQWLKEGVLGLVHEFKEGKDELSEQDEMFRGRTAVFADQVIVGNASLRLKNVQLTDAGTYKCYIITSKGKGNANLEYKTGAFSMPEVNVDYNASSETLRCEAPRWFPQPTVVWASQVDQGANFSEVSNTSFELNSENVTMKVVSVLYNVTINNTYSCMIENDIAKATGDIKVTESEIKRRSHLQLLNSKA

[3] = target: T3, B7-H3 recombinant protein (义翘神州 11188-H08H) (UniProt Q5ZPR3 29-461); assay: as above
T3 sequence (looked up): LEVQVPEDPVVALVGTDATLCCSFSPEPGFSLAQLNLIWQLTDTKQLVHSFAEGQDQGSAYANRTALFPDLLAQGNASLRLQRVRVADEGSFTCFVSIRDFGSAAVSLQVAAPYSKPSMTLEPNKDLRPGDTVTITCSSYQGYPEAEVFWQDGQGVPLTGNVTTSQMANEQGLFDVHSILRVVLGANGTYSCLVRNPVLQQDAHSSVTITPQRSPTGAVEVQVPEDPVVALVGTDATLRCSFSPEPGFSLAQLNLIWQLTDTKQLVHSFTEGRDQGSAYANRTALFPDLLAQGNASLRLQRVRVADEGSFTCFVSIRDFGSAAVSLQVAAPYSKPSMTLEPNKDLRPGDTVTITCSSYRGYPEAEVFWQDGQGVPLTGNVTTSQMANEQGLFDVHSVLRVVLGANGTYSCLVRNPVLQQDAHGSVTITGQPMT

[4] = target: T4, B7-H2 recombinant protein (义翘神州 11559-H08H) (UniProt O75144 19-258); assay: as above
T4 sequence (looked up): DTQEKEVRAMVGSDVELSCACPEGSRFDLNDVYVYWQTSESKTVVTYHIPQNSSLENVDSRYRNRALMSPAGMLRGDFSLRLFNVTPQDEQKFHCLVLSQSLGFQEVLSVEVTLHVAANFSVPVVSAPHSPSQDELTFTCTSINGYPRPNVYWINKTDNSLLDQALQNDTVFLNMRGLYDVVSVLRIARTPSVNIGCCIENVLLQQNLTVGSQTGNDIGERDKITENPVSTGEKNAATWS

[5] = target: T5, B7-DC recombinant protein (义翘神州 10292-H08H-B) (UniProt Q9BQ51 20-219); assay: as above
T5 sequence (looked up): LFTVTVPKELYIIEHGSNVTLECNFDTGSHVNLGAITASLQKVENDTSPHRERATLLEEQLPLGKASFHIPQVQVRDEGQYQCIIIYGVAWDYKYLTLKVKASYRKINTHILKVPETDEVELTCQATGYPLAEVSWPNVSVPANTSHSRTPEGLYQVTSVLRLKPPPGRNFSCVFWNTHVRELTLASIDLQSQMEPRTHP

[6] = target: T6, 恒河猴PD-L1 (全长蛋白, on CHO-s cells) (rhesus monkey, UniProt F6VEW6 19-290); assay: FACS on monkey PD-L1-CHO cells
T6 construct: whole, on cells; also called 猴PD-L1-CHO

[7] = target: T7, 人PD-L1 (全长蛋白, on cells) (human, UniProt Q9NZQ7 19-290); assay: FACS on human PD-L1-CHO cells, PE anti-human IgG Fc
T7 construct: whole, on cells; also called 人PD-L1-CHO; PD-L1-CHO

[8] = target: T7, 人PD-L1 (全长蛋白, on cells); assay: FACS competition on human PD-L1-CHO cells against biotin PD-1-Fc (1 μg/mL)
[9] = target: T7, 人PD-L1 (全长蛋白, on cells); assay: FACS competition on human PD-L1-CHO cells against biotin CD80 (1 μg/mL)

T7 sequence (Q9NZQ7 19-290): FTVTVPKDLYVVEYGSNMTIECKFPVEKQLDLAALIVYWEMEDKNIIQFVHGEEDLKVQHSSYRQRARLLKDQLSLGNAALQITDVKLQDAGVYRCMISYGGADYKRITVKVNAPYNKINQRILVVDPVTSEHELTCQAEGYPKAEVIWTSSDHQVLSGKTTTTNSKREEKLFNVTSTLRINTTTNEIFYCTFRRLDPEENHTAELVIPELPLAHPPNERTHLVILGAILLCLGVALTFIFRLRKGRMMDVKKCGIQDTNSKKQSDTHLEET
T1 sequence (Q9EP73 19-290): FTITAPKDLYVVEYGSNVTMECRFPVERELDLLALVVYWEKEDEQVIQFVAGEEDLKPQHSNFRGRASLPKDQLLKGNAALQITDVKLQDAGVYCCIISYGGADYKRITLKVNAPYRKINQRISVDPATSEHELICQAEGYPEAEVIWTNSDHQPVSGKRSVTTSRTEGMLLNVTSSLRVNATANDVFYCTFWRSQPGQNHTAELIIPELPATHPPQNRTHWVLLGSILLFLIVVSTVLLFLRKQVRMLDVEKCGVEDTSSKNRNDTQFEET

B1: KN035 (Fc fusion)
chain: QVQLVESGGGLVQPGGSLRLSCAASGFTFSRRCKAWFRQAPGKERERVAKILTTSGSTYLADSVKGRFTISRDNSKNTVYLQMNSLRAEDTAVYYCAADSFEDPTCTLVTSSGAFQYWGQGTLVTVSS
notes: Control antibody made from the synthesised whole gene in ExpiCHO; the molecule is detected with anti-human IgG Fc; also called KN035(对照); 对照抗体KN035
- binding result [1]: no binding (tested: 20μg/mL)
- binding result [2]: no binding
- binding result [3]: no binding
- binding result [4]: no binding
- binding result [5]: no binding
- EC50 [6]: 0.21 µg/mL
- EC50 [7]: 0.39 µg/mL
- IC50 [8]: 0.39 µg/mL
- IC50 [9]: 0.631 µg/mL
